Assay results as given in article PMC4666391 (Nucleic Acids Research, 2015).

Experiments:
[1] = molecular target: T1, pre-RC (MCM2–7 double-hexamer on DNA) in the presence of DDK (S. cerevisiae, UniProt P29469 1-868; P24279 1-971; P30665 1-933; P29496 1-775; P53091 1-1017; P38132 …, phosphorylated by DDK, sites not printed | phosphorylated by DDK, sites not printed | phosphorylated by DDK, sites not given); assay: SEC; gel-filtration based pre-RC assay: Sld3 or Sld2 (40 nM) added alone to pre-RC with DDK (5 nM); signal corrected for Mcm2 and compared with the reaction without DDK; details: both partners purified
T1 construct: Mcm2, subunit of MCM2–7, S. cerevisiae; Mcm3, subunit of MCM2–7, S. cerevisiae; Mcm4, subunit of MCM2–7, S. cerevisiae; Mcm5, subunit of MCM2–7, S. cerevisiae; Mcm6, subunit of MCM2–7, S. cerevisiae; Mcm7, subunit of MCM2–7, S. cerevisiae; DDK was added together with the factors, so the extent of phosphorylation at early times is not known; also called DDK-phosphorylated pre-RC; source: assembled …

[2] = molecular target: T2, pre-RC (MCM2–7 double-hexamer loaded on pUC19-ARS1 DNA) (S. cerevisiae, UniProt P29469 1-868; P24279 1-971; P30665 1-933; P29496 1-775; P53091 1-1017; P38132 …); assay: SEC; gel-filtration based pre-RC assay: Sld2 and Sld3 added together to pre-RC, no DDK; 40 nM each for 1 min, titrations (Sld2 60 and 90 nM; Sld3 90 nM) and time course 0.5–30 min, over which binding of both decreased; details: both partners purified
T2 construct: Mcm2, subunit of MCM2–7, S. cerevisiae; Mcm3, subunit of MCM2–7, S. cerevisiae; Mcm4, subunit of MCM2–7, S. cerevisiae; Mcm5, subunit of MCM2–7, S. cerevisiae; Mcm6, subunit of MCM2–7, S. cerevisiae; Mcm7, subunit of MCM2–7, S. cerevisiae; Loaded around double-stranded plasmid DNA; also called pre-replicative complex; source: assembled in solution from purified ORC, Cdc6, Cdt1 and MCM2–7 (40 nM …)

- fold increase of binding with DDK, against the pre-RC without DDK [1]: ~2 fold
- fold reduction of binding when Sld3 is added, against Sld2 alone [2]: ~4 fold
B1: Sld2 (purified) (natural protein, S. cerevisiae, UniProt P34252 1-453, looked up)
chain: MYSFELDKLKIELKTWEHDFIDKNKREPTRDDIKSLRTVRQMYKQYSTLKKKQSLQRQKVDTQESVELPAHKKDHDEVVEIGPTPQVYGKAISIFDMNLSPIKPIYMTFTNNIDVNNDNSKTISNESSPRKTILLKSSPADRTLVAEPISSVKRQLNFQMLNASSTRTPTSSPCKNRNGKLVEIKKCSPTINPPLESGKPSGYYGPNSPLKLDEENIHLNISLNSSTKRRLQIAYPSLQKTPSKDQADISTSFSPSPLIRRPLTKSLIELAREHTEIVKEFGVLQEEDIEEEEEGEEGENGYDEKNHEDDFGLEDELIRPKVVKDIFQEDDDNDDSQAREDTFIRKRPKRRKVIRRLRDNDPETETAGFERDVHKELVKLKRRKVAEFLGSTSQISDTEFEHDPEASSGVVSSEQKPTAKRKGRKKYNLVSNNFRRLKLPKKNRFSNGRWGRR
notes: Sld2, S. cerevisiae; it may or may not be the same preparation as GST-Sld2; also called purified Sld2; source: purified
